Data on one protein can be found in article PMC6978808, “In Situ Structure of an Intact Lipopolysaccharide-Bound Bacterial Surface Layer” (Cell, 2020).

Several values for one entry are separate records, joined by “and”; a condition that tells them apart may be missing. Equal entries are not always repeated.

Data set [1] deals with the molecule itself. Description: native MS; purified RsaANTD:PS complex with Ca2+; Q-Exactive UHMR; tandem MS (HCD 220 V) to assign the oligomers.
Data set [2] deals with the molecule itself. Description: native MS; RsaANTD:PS sample after removal of Ca2+ on Zeba micro spin desalting columns.
Data set [3] deals with the molecule itself. Description: cryo-EM structure; single-particle cryo-EM of the purified RsaANTD:PS complex, 3.7 Å; PS and Ca2+ bound.

B1: N-terminal domain of RsaA (RsaANTD) (domain or fragment, Caulobacter crescentus)
chain: AYTTAQLVTAYTNANLGKAPDAATTLTLDAYATQTQTGGLSDAAALTNTLKLVNSTTAVAIQTYQFFTGVAPSAAGLDFLVDSTTNTNDLNDAYYSKFAQENRFINFSINLATGAGAGATAFAAAYTGVSYAQTVATAYDKIIGNAVATAAGVDVAAAVAFLSRQANIDYLTAFVRANTPFTAAADIDLAVKAALIGTILNAATVSGIGGYATATAAMINDLSDGALSTDNAAGVNLFTAYPSSGVSGSEN
notes: S-layer protein RsaA of Caulobacter crescentus (1026 residues), N-terminal domain; the introduction defines RsaANTD as residues 1-249; residues 2-243 are built in the cryo-EM model; Cleavage by TEV protease after Gln would leave Glu-Asn-Leu-Tyr-Phe-Gln; also called inner domain of the S-layer; source: C. crescentus rsaATEV250 strain
As for B1, the stoichiometry N (usually a count of units in the complex or per binding partner) in data set [1] is 2; in data set [2], 4; in data set [3], 21 and 20.
